Experimental data as given in patent publication US20260241035A1, “FUNCTIONAL NUCLEIC ACID MOLECULE AND METHOD” (THE UNIVERSITY COURT OF THE UNIVERSITY OF EDINBURGH, priority 2022, published 2026).

Legend:
Type in all cases: cell-based, human
[1] = in vitro; settings: human; ganciclovir alone, GSC7; read-out: viability (MTT)
Description: (§4) On the day of cell seeding, cells were detached using above described method. Cells were counted using hemocytometer and seeded into either 96-(1,000 cells per well in 50 μL), 24-(30,000 cells per well in 500 μL) or 6-well (60,000 cells per well in 2 mL) Corning plate and placed into incubator at 37° C./5% CO2. The next day, AAV virus stocks were thawed at room temperature and an appropriate amount of virus stock was added to required amount of culture media to achieve final multiplicity of infection (MOI) of 5×10^5. Culture media containing viral particles was added to cells without replacement of existing media. Cells were returned to 37° C./5% CO2.
(§5) Lyophilised GCV was diluted in DMSO to achieve 100 mM stock concentration. GCV stocks were aliquoted and were stored at −20° C. for no longer than 1 month. […]
(§6) To track cell proliferation and morphological changes during treatments, cells were monitored using the Incucyte live-cell imaging system. […]
(§7) On the day of assay culture media was replaced with 0.3 mg/mL MTT solution (diluted in cell line-appropriate culture media). […] Before reading the plate, each well was visually inspected to make sure that all (formazan) crystals were dissolved. Plate was read with plate reader at 560 nm absorbance.

[2] = test system: GSC7 cells; experiment: in vitro; settings: ganciclovir alone, no virus
Description: as §4, §5, §6, §7

[3] = test system: GSC328 cells; experiment: Flow cytometry of mNGreen reporter in GSC328
Description: Cells were seeded at the required density. The following day the transfection was carried out. For this the Plus reagent and Lipofectamine LTX (Life Technologies, 15338030) were each diluted in half the volume of Opti-MEM I Reduced-Serum Medium (further referred to as Optimem) (Life Technologies, 31985062). Following this step, the Plus reagent/Optimem premix was added to all DNA samples followed by the Lipofectamine LTX/Optimem premix. The transfection mix was incubated for 5 min at room temperature and then carefully dropped on the cells. Generally, no media change was carried out. Cells were analysed two days following transfection.
(§1) For flow cytometry, cells were detached, pelleted and resuspended in an appropriate volume of flow cytometry buffer (1% BSA in PBS, v/v). Cells were stained with Draq7 (Abcam, ab109202, f.c. 0.1 μM) as a live/dead stain and analysed using the BD LSRFortessa cell analyser (4 lasers, BD Bioscience). Analysis of flow cytometry data was carried out in the FlowJo Analysis software (FlowJo, version 10.6.2).

[4] = test system: GSC patient lines E31 and E55; experiment: Lentivirus SSE-7-mCherry reporter, flow cytometry in GSC patient lines
Source text: FIG. 14: Exemplary SSE-7 also has good activity when deployed with lentivirus. Flow cytometry quantitation of levels of mCherry reporter in GSCs transduced with lentivirus harbouring SSE-7-mCherry reporters.

[5] = test system: GSC7 cells; experiment: Flow cytometry of mNGreen reporter in GSC7
Description: Cells were seeded at the required density. The following day the transfection was carried out. […] Following this step, the Plus reagent/Optimem premix was added to all DNA samples followed by the Lipofectamine LTX/Optimem premix. The transfection mix was incubated for 5 min at room temperature and then carefully dropped on the cells. Generally, no media change was carried out. Cells were analysed two days following transfection.
For flow cytometry, cells were detached, pelleted and resuspended in an appropriate volume of flow cytometry buffer (1% BSA in PBS, v/v). Cells were stained with Draq7 (Abcam, ab109202, f.c. 0.1 μM) as a live/dead stain and analysed using the BD LSRFortessa cell analyser (4 lasers, BD Bioscience).

[6] = test system: GSC7 cells; experiment: AAV2 transduction: mCherry (flow cytometry) and HSV-TKv5 (western blot) expression in GSC7; settings: AAV2 HSV-TK-v5-P2A-mCherry cassette
Description: as §1
(§2) Cells were scraped in PBS and spun down at […] twice to remove all liquid. Cell pellets were resuspended in 70 μl of RIPA buffer (50 mM Tris-HCl pH 8.0, 150 mM NaCl, 1% NP-40, 0.5% deoxycholate, 0.1% SDS and protease inhibitor (Complete, Roche, 11697498001) and incubated for 5 min on ice. Lysates were centrifuged at 13000 rpm for 10 min at 4° C. (centrifuge 5415D, Eppendorf). And the supernatant was collected in a new tube. Protein extracts were quantified using the Pierce BCA Protein Assay Kit (Thermo Scientific, Cat: 23225) according to the manufacturer's instructions.
(§3) HEK293 cells are seeded the day before the transfection into a 6 well plates so that on the day of transfection confluence would be at 60-70%. Before HEK293 cells are transfected with PEI a media change is carried out as this media will be conditioned with virus over the for two days. […] Cells are analysed on the microscope or flow cytometry. […]

[7] = test system: huFb170 fibroblasts; experiment: AAV2 transduction: mCherry and HSV-TKv5 expression in huFb170; settings: AAV2 HSV-TK-v5-P2A-mCherry cassette
Description: as §1, §2, §3

[8] = test system: patient-derived glioblastoma cell lines (GSC7, E17, E21, E28, E31, E34); experiment: SSE-7 activity (% mCherry) across patient-derived glioblastoma cell lines
Source text: FIG. 7: Activity of SSE-7 in a range of GSCs. (A) Schematic of the expression cassette. (B) Experimental outline, (C) Results of % mCherry expression for individual cells across the various cell lines tested. GSC7 was the positive control cell line tested (from which the fragments were initially screened). E17, E28 (previously termed G328), E21, E31, E34 refers to the five additional patient-derived glioblastoma cell lines.
The experiment described in Example 8 was repeated in five patient-derived glioblastoma cell lines (E17, E21, E28, E31, E34).

For `Nc1nc(O)c2ncn(COC(CO)CO)c2n1` [ganciclovir], the viability at 200 μM [1] was 89% and the cell confluence [2] was “No significant negative effect on cell confluence”.

B1: SSE-6: synthetic super-enhancer ID3548_ID3146_ID4310_ID4428, SEQ ID NO: 69 (nucleic acid)
DNA: TCCAAACACTCCCCTGCAACAGATGTACACACAGAGCCCATTGTTTTCTCTAGAAATGTAAACTGCACGTCACAGTTACTCCATACACACCACAAACAGACTCCCTTTGTTCTCAGGATATGTGTTGACACAAGAATATGTCATCCTCTCAGCTCCAGACTGAAAGAGATGGGTGTGTGGGAGTGGGGGAAGCTGAGCTCCAGGCAGACAGCACAGAGCCGCCTTGTCCAACCCAGCCAGGTGCCATGGCAACCAACAAAGGCCCCATTGTCCCGTGTCTGCTGGGCCTTCCTGAGGCTCTGGGGTCAGAGTCCCGGTTTTGTCCTGCCTTTGAGAACACTGGAAGGGCACTGAAGGCTGACCAGCATGCACCTCACCCCACCTCCTCTCTGTCTCATCCTCAGCCATCTAAGCGGGAGACTCATCAGGCTTAAATTCTCATTCTTATCCAAGATTCTTCTGCTTCAAATGAGTCTAAATGGAGATCCTCCCATAAAGGGAGTTCTGTTTGGGCTTCCCTTGGAAGTCCATTGAAAGCGTTTCACATTTCAATGCTTCTTTACATTCTCCTCTAGAATGAATCTGGAAGGGCCATTTCATTCCAGCCCTATCAGATTTACTACTTCCTCCTGT
For B1, the “mean fluorescence intensity (MFI) compared with CMV” value [3] was “clearly less intense than CMV”.

B2: SSE-7: synthetic super-enhancer ID4310_ID4428_ID0785_ID3836, SEQ ID NO: 70 (nucleic acid)
DNA: TTGTCCTGCCTTTGAGAACACTGGAAGGGCACTGAAGGCTGACCAGCATGCACCTCACCCCACCTCCTCTCTGTCTCATCCTCAGCCATCTAAGCGGGAGACTCATCAGGCTTAAATTCTCATTCTTATCCAAGATTCTTCTGCTTCAAATGAGTCTAAATGGAGATCCTCCCATAAAGGGAGTTCTGTTTGGGCTTCCCTTGGAAGTCCATTGAAAGCGTTTCACATTTCAATGCTTCTTTACATTCTCCTCTAGAATGAATCTGGAAGGGCCATTTCATTCCAGCCCTATCAGATTTACTACTTCCTCCTGTAAGAATGAACTGGGCCCAGCTGGGCATTTGCATCAAAGTGCCTCACCAGAGTTCCCAGCTGCTCTGGCAGAGTGCCCAGGCTTGCCCCAGAGCCCAAACAGAATGCTCTTTGAGATGCCTCTGGTTTTCATACCCTTCCAGGGGAGCAGTTTCCTGGCTGTGTCGTCAGATACTGTGGTTTACGCTGTTCCGGAGTCTGGAGGTCTGTGTGCCTTTGATCTCTTTCCCAACTAATTTGCACAGCTGCTGTGGAGGCCCTCATGAATGACCTCTTTCTTTCCTTTCT
In the case of B2, the mCherry reporter expression [4] is reported as “High levels of expression”, the “expression level compared with positive control CMV, flow cytometry” value [5] is reported as “higher than CMV” and the “fluorescence intensity compared with CMV” value [5] is reported as “higher intensity than CMV”. For the same molecule, the “mCherry and HSV-TKv5 expression” value [6] was “driving both mCherry and HSV-TKv5 expression”, the “mCherry and HSV-TKv5 expression” value [7] was “not in fibroblasts” and the expression ([8]; E21, E31 and E34) was “lower frequency of expression”. For the same molecule, the expression ([8]; GSC7, E17 and E28) was “highly expressed and comparable to full-length CMV” and the “activity across cell lines” value ([8]; all lines tested) was “active in all cell lines”.
